Literature values as cited in patent US20090317412A1, “Induction of an immune response against streptococcus pneumoniae polyaccharides” (priority 2004, published 2009).

Target: T1, murine I-A^b molecules (Mus musculus, UniProt P14434+P14483)
T1 sequence (P14434 24-256): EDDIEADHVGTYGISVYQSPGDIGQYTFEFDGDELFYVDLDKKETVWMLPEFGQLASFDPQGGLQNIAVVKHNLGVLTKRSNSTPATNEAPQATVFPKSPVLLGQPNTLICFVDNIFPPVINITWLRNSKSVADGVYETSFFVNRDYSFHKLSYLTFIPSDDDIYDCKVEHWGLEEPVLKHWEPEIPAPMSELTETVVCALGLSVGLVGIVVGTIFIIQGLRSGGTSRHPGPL
T1 sequence (P14483 28-265): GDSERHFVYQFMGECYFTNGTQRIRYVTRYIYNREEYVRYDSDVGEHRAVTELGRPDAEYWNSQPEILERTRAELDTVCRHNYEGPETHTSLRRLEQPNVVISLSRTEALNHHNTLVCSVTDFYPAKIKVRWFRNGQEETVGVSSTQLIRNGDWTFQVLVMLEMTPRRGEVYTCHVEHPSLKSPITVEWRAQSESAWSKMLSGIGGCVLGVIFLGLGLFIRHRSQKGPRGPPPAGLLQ

## AKXVAAWTLKAAA [pan DR binding peptide]
  binding to murine I-A^b molecules: binds
